Ends that are not written are not given here.
Target: T1, insulin-like growth factor I (IGF-I) (human, UniProt P05019 49-118, 125I-labelled in the ligand blots, affinity cross-linking and solution binding assay; unlabelled in BIAcore)
T1 construct: Human is stated only for the BIAcore material (rhIGF-I); also called rhIGF-I
Assay: dot ligand blot: E. coli GST-fusion lysate dotted on nitrocellulose, probed with 125I-IGF-I; anti-GST dot immunoblot as loading control
Method: For dot blots, 2.5 μl of sample were dotted directly onto the nitrocellulose membrane. The membranes were then blocked for 1 h at 21° C. in 4% milk/TBS-T, followed by an overnight incubation at 4° C. with anti-IGFBP-3 monoclonal antibody (Diagnostic Systems Laboratories, Inc., Webster, Tex.), anti-GST polyclonal antibody (Amersham Pharmacia Biotech, Piscataway, N.J.), anti-PY20 monoclonal antibody (Santa Cruz Biotech, Santa Cruz, Calif.), or anti-IRS-1 polyclonal antibody (Upstate, Lake Placid, N.Y.), all at 1:3000 dilutions. Membranes were washed with TBS-T and incubated for 1 h at 21° C. with a 1:3000 dilution of horseradish peroxidase-linked antirabbit or antimouse IgG secondary antibodies (Amersham Pharmacia Biotech, Piscataway, N.J.). Proteins were detected by enhanced chemiluminescence reagents, according to the manufacturer's protocol (NEN Life Science Products, Boston, Mass.).
Lane 1, ⁽¹⁻⁴⁶⁾IGFBP-3; lane 2, ⁽¹⁻⁷⁵⁾IGFBP-3; lane 3, ⁽¹⁻⁸⁰⁾IGFBP-3; lane 4, ⁽¹⁻⁸⁷⁾IGFBP-3; lane 5, full-length IGFBP-3; lane 6, pGEX4T-1 vector alone. The binding of these IGFBP-3 “deletion” fragments to [¹²⁵I]-IGF-I is shown, along with wild-type IGFBP-3 binding, and control vector (pGEX4T-1) to [¹²⁵I]-IGF-I. For each protein sample, the protein extract was directly pipetted onto nitrocellulose paper, incubated in 1% BSA with [¹²⁵I]-IGF-I, and then exposed to film. […]

T1 sequence (P05019 49-118 limits assumed): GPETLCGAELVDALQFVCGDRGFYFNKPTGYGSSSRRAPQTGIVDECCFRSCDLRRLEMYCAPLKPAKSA

B1: (1-46)IGFBP-3 FLAG-tagged fragment, GST-fusion (E. coli) (other, human)
chain: GASSAGLGPVVRCEPCDARALAQCAPPPAVCAELVREPGCGCCLTCDYKDDDDK
modifications: cysteine pairing not given here; also: GST fusion with the vector's linker, linker sequence and fusion end not given here
notes: range 1-46; Tested as crude E. coli cell lysate; not shown: glutathione S-transferase encoded by vector pGEX4T-1, with the vector's linker
binding result: no binding
